Test results reported in FireProtDB (doi:10.1016/s0014-5793(99)00158-1).

B1: Ribonuclease wild type, P00648 (protein)
chain: MMKMEGIALKKRLSWISVCLLVLVSAAGMLFSTAAKTETSSHKAHTEAQVINTFDGVADYLQTYHKLPDNYITKSEAQALGWVASKGNLADVAPGKSIGGDIFSNREGKLPGKSGRTWREADINYTSGFRNSDRILYSSDWLIYKTTDHYQTFTKIR
B2: Ribonuclease wild type, P00649 (protein)
chain: MKKISSVFTMFALIAAILFSGFIPQQAYAETPLTQTATNETATIQLTSDVHTLAVINTFDGVADYLIRYKRLPDNYITKSQASALGWVASKGNLAEVAPGKSIGGDVFSNREGRLPSASGRTWREADINYVSGFRNADRLVYSSDWLIYKTTDHYATFTRIR
B3: Barstar wild type, P11540 (protein)
chain: MKKAVINGEQIRSISDLHQTLKKELALPEYYGENLDALWDCLTGWVEYPLVLEWRQFEQSKQLTENGAESVLQVFREAKAEGCDITIILS

Details: pH 6.2, Thermal, DSC, Na-acetate 10 mM, NaCl 0.05 M, reversible: yes, whole UniProt chain shown

Protein	Tm (Bacillus amyloliquefaciens)	unfolding enthalpy (calorimetric) (Bacillus amyloliquefaciens)	unfolding enthalpy (van 't Hoff) (Bacillus amyloliquefaciens)	Tm (Bacillus intermedius)	unfolding enthalpy (calorimetric) (Bacillus intermedius)	unfolding enthalpy (van 't Hoff) (Bacillus intermedius)
B1	54.5 °C	129 kcal/mol	130 kcal/mol			
B2				56.5 °C	124 kcal/mol	126 kcal/mol
B3	73.3 °C	53 kcal/mol	76 kcal/mol			
